# From patent publication EP2170953B1
# Legend:
# [1] = molecular target: Aβ1-42 peptide, oligomer-enriched preparation; assay: ELISA mean of 3, Ab 1:32 of 0.5 µg/ml
# [2] = molecular target: Aβ1-42 peptide, monomer-enriched preparation; assay: ELISA mean of 3, Ab 1:32 of 0.5 µg/ml
# [3] = molecular target: Aβ1-42 peptide, oligomer-enriched preparation; assay: ELISA assay 3, Ab 1:128 of 0.5 µg/ml
# [4] = molecular target: Aβ1-42 peptide, monomer-enriched preparation; assay: ELISA assay 3, Ab 1:128 of 0.5 µg/ml
# [5] = molecular target: Aβ1-42 peptide, high molecular weight (HMW) proto-fibrillar (PF) oligomer enriched preparation (human); assay: ELISA, Ab 0.0078 µg/ml; proto-fibrils against LMW monomers (given without sign)
# Chain of Aβ1-42 peptide, high molecular weight (HMW) proto-fibrillar (PF) oligomer enriched preparation (human) (peptide, as listed by the source, form in doubt): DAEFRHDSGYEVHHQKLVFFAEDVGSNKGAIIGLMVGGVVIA
# [6] = molecular target: Aβ1-42 peptide, oligomer-enriched preparation; assay: ELISA mean of 3, Ab 1:1 of 0.5 µg/ml
# [7] = molecular target: Aβ1-42 peptide, monomer-enriched preparation; assay: ELISA mean of 3, Ab 1:1 of 0.5 µg/ml
# [8] = molecular target: Aβ1-42 peptide, oligomer-enriched preparation; assay: ELISA assay 2, Ab 1:8 of 0.5 µg/ml
# [9] = molecular target: Aβ1-42 peptide, oligomer-enriched preparation; assay: ELISA assay 2, Ab 1:4 of 0.5 µg/ml
# [10] = molecular target: Aβ1-42 peptide, monomer-enriched preparation; assay: ELISA assay 2, Ab 1:4 of 0.5 µg/ml
# [11] = molecular target: Aβ1-42 peptide, oligomer-enriched preparation; assay: ELISA assay 2, Ab 1:128 of 0.5 µg/ml
# [12] = molecular target: Aβ1-42 peptide, monomer-enriched preparation; assay: ELISA assay 2, Ab 1:128 of 0.5 µg/ml
# [13] = molecular target: Aβ1-42 peptide, low molecular weight (LMW) monomer preparation (human); assay: ELISA on coated fraction, Ab 0.25 µg/ml
# Chain of Aβ1-42 peptide, low molecular weight (LMW) monomer preparation (human) (peptide, as listed by the source, form in doubt): as above
# [14] = molecular target: Aβ1-42 peptide, high molecular weight (HMW) proto-fibrillar (PF) oligomer enriched preparation (human); assay: ELISA on coated fraction, Ab 0.25 µg/ml
# [15] = molecular target: Aβ1-42 peptide, low molecular weight (LMW) monomer preparation (human); assay: ELISA on coated fraction, Ab 0.0313 µg/ml
# [16] = molecular target: Aβ1-42 peptide, high molecular weight (HMW) proto-fibrillar (PF) oligomer enriched preparation (human); assay: ELISA on coated fraction, Ab 0.0313 µg/ml
# [17] = molecular target: Aβ1-42 peptide, oligomer-enriched preparation; assay: ELISA assay 2, Ab 1:64 of 0.5 µg/ml
# [18] = molecular target: Aβ1-42 peptide, monomer-enriched preparation; assay: ELISA assay 2, Ab 1:64 of 0.5 µg/ml
# [19] = molecular target: Aβ1-42 peptide, low molecular weight (LMW) monomer preparation (human); assay: ELISA on coated fraction, Ab 0.125 µg/ml
# [20] = molecular target: Aβ1-42 peptide, high molecular weight (HMW) proto-fibrillar (PF) oligomer enriched preparation (human); assay: ELISA on coated fraction, Ab 0.125 µg/ml
# [21] = molecular target: Aβ1-42 peptide, low molecular weight (LMW) monomer preparation (human); assay: ELISA on coated fraction, Ab 1 µg/ml
# [22] = molecular target: Aβ1-42 peptide, high molecular weight (HMW) proto-fibrillar (PF) oligomer enriched preparation (human); assay: ELISA on coated fraction, Ab 1 µg/ml
# [23] = molecular target: Aβ1-42 peptide, oligomer-enriched preparation; assay: ELISA mean of 3, Ab 1:64 of 0.5 µg/ml
# [24] = molecular target: Aβ1-42 peptide, monomer-enriched preparation; assay: ELISA mean of 3, Ab 1:64 of 0.5 µg/ml
# [25] = molecular target: Aβ1-42 peptide, oligomer-enriched preparation; assay: ELISA assay 1, Ab 1:64 of 0.5 µg/ml
# [26] = molecular target: Aβ1-42 peptide, monomer-enriched preparation; assay: ELISA assay 1, Ab 1:64 of 0.5 µg/ml
# [27] = molecular target: Aβ1-42 peptide, oligomer-enriched preparation; assay: ELISA mean of 3, Ab 1:128 of 0.5 µg/ml
# [28] = molecular target: Aβ1-42 peptide, monomer-enriched preparation; assay: ELISA mean of 3, Ab 1:128 of 0.5 µg/ml
# [29] = molecular target: Aβ1-42 peptide, oligomer-enriched preparation; assay: ELISA assay 2, Ab 1:16 of 0.5 µg/ml
# [30] = molecular target: Aβ1-42 peptide, monomer-enriched preparation; assay: ELISA assay 2, Ab 1:16 of 0.5 µg/ml
# [31] = molecular target: Aβ1-42 peptide, oligomer-enriched preparation; assay: ELISA assay 3, Ab 1:64 of 0.5 µg/ml
# [32] = molecular target: Aβ1-42 peptide, monomer-enriched preparation; assay: ELISA assay 3, Ab 1:64 of 0.5 µg/ml
# [33] = molecular target: Aβ1-42 peptide, oligomer-enriched preparation; assay: ELISA assay 2, Ab 1:2 of 0.5 µg/ml
# [34] = molecular target: Aβ1-42 peptide, monomer-enriched preparation; assay: ELISA assay 2, Ab 1:2 of 0.5 µg/ml
# [35] = molecular target: Aβ1-42 peptide, high molecular weight (HMW) proto-fibrillar (PF) oligomer enriched preparation (human); assay: ELISA, Ab 0.125 µg/ml; proto-fibrils against LMW monomers (given without sign)
# [36] = molecular target: Aβ1-42 peptide, oligomer-enriched preparation; assay: ELISA assay 1, Ab 1:32 of 0.5 µg/ml
# [37] = molecular target: Aβ1-42 peptide, monomer-enriched preparation; assay: ELISA assay 1, Ab 1:32 of 0.5 µg/ml
# [38] = molecular target: Aβ1-42 peptide, high molecular weight (HMW) proto-fibrillar (PF) oligomer enriched preparation (human); assay: ELISA, Ab 0.5 µg/ml; proto-fibrils against LMW monomers (given without sign)
# [39] = molecular target: Aβ1-42 peptide, low molecular weight (LMW) monomer preparation (human); assay: ELISA on coated fraction, Ab 0.0156 µg/ml
# [40] = molecular target: Aβ1-42 peptide, high molecular weight (HMW) proto-fibrillar (PF) oligomer enriched preparation (human); assay: ELISA on coated fraction, Ab 0.0156 µg/ml
# [41] = molecular target: Aβ1-42 peptide, oligomer-enriched preparation; assay: ELISA assay 2, Ab 1:32 of 0.5 µg/ml
# [42] = molecular target: Aβ1-42 peptide, monomer-enriched preparation; assay: ELISA assay 2, Ab 1:32 of 0.5 µg/ml
# Chain of Aβ1-42 peptide, oligomer-enriched preparation (peptide, as listed by the source, form in doubt): as above
# Chain of Aβ1-42 peptide, monomer-enriched preparation (peptide, as listed by the source, form in doubt): as above
substance,measurement,setting,value
6E10 control antibody,O.D. (mean),[1],1.32 O.D.
same,O.D. (mean),[2],1.36 O.D.
same,O.D.,[3],0.66 O.D.
same,O.D.,[4],0.86 O.D.
same,O.D. difference,[5],0.02 O.D.
same,O.D. (mean),[6],3.64 O.D.
same,O.D. (mean),[7],3.83 O.D.
same,O.D.,[8],2.99 O.D.
same,O.D.,[9],3.37 O.D.
same,O.D.,[10],3.29 O.D.
same,O.D.,[11],0.61 O.D.
same,O.D.,[12],0.75 O.D.
same,O.D.,[13],1.56 O.D.
same,O.D.,[14],1.44 O.D.
same,O.D.,[15],0.329 O.D.
same,O.D.,[16],0.286 O.D.
same,O.D.,[17],0.88 O.D.
same,O.D.,[18],0.94 O.D.
same,O.D.,[19],0.999 O.D.
same,O.D.,[20],0.863 O.D.
same,O.D.,[21],2.68 O.D.
same,O.D.,[22],2.55 O.D.
same,O.D. (mean),[23],0.92 O.D.
same,O.D. (mean),[24],0.94 O.D.
same,O.D.,[25],0.93 O.D.
same,O.D.,[26],0.81 O.D.
same,O.D. (mean),[27],0.63 O.D.
same,O.D. (mean),[28],0.75 O.D.
same,O.D.,[29],1.92 O.D.
same,O.D.,[30],1.94 O.D.
same,O.D.,[31],0.95 O.D.
same,O.D.,[32],1.08 O.D.
same,O.D.,[33],3.55 O.D.
same,O.D.,[34],3.48 O.D.
same,O.D. difference,[35],0.14 O.D.
same,O.D.,[36],1.27 O.D.
same,O.D.,[37],1.18 O.D.
same,O.D. difference,[38],0.13 O.D.
same,O.D.,[39],0.207 O.D.
same,O.D.,[40],0.201 O.D.
same,O.D.,[41],1.3 O.D.
same,O.D.,[42],1.34 O.D.
